Data on 4 molecules can be found in patent publication US20220363757A1 (SYMPHOGEN A S, published 2022).

Changes are numbered by the printed parent chain.

Holding throughout (assay): SPR, Fab over captured mutant LAG-3-Fc;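 also: LAG-3 fusion proteins captured on an anti-human IgG Fc sensor chip and read on an IBIS MX96 biosensor, Fab association and dissociation each 15 min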
(In general: In SPR one partner is held on a chip, and binding of the other changes the refractive index at the surface.)

The target in experiment [1] is T1, human LAG-3 domain 1-2 Fc fusion, chimeric construct #5 (mutated region AA 46-51) (human, UniProt P18627 23-266).
T1 construct: not shown: human IgG1 Fc, AA P101-K330
T1 chain: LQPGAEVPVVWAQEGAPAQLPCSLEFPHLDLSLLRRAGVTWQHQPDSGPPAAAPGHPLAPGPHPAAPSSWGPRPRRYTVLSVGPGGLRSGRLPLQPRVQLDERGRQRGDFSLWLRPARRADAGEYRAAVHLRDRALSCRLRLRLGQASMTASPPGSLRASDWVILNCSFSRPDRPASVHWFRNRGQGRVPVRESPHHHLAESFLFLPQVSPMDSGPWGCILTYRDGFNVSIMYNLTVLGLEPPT

Experiment [2] deals with T2, human LAG-3 domain 1-2 Fc fusion, chimeric construct #18 (mutated region AA 114-119) (human, UniProt P18627 23-266).
T2 construct: not shown: human IgG1 Fc, AA P101-K330
T2 chain: T1 chain with L24P, E25T, F26I, H28L, L29Q, L92Q, Q95L, P96S, R97H

The target of experiment [3] is T3, human LAG-3 domain 1-2 Fc fusion, chimeric construct #24 (mutated region AA 148-154) (human, UniProt P18627 23-266).
T3 construct: not shown: human IgG1 Fc, AA P101-K330
T3 chain: T1 chain with L24P, E25T, F26I, H28L, L29Q, R126H, A128F, H130R, R132P

Experiment [4] deals with T4, human LAG-3 domain 1-2 Fc fusion, chimeric construct #28 (mutated region AA 84-90, cynomolgus backmutations) (human, UniProt P18627 23-266).
T4 construct: not shown: human IgG1 Fc, AA P101-K330
T4 chain: T1 chain with L24P, E25T, F26I, H28L, L29Q, P62H, H63R, S68Y

Experiment [5] deals with T5, human LAG-3 domain 1-2 Fc fusion, chimeric construct #6 (mutated region AA 48-55) (human, UniProt P18627 23-266).
T5 construct: not shown: human IgG1 Fc, AA P101-K330
T5 chain: T1 chain with L24P, E25T, L31P, S32N, L33F

The target of experiment [6] is T6, human LAG-3 domain 1-2 Fc fusion, chimeric construct #8 (mutated region AA 59-66) (human, UniProt P18627 23-266).
T6 construct: not shown: human IgG1 Fc, AA P101-K330
T6 chain: T1 chain with L24P, E25T, F26I, H28L, L29Q, A37G, G38W, Q44R

For experiment [7], the target named is T7, human LAG-3 domain 1-2 Fc fusion, chimeric construct #16 (mutated region AA 98-105) (human, UniProt P18627 23-266).
T7 construct: not shown: human IgG1 Fc, AA P101-K330
T7 chain: T1 chain with L24P, E25T, F26I, H28L, L29Q, R76S, T78V, S81M, V82R, G83A

Experiment [8] concerns the target T8, human LAG-3 domain 1-2 Fc fusion, chimeric construct #17 (mutated region AA 114-117) (human, UniProt P18627 23-266).
T8 construct: not shown: human IgG1 Fc, AA P101-K330
T8 chain: T1 chain with L24P, E25T, F26I, H28L, L29Q, L92Q, Q95L

The target in experiment [9] is T9, human LAG-3 domain 1-2 Fc fusion, chimeric construct #1 (mutated region AA 23-30) (human, UniProt P18627 31-266).
T9 construct: not shown: human IgG1 Fc, AA P101-K330
T9 sequence: T1 chain with L1S, Q2G, A5K, V7L, P8S, L24P, E25T, F26I, H28L, L29Q

B1: Fab fragment of antibody 15011 (Fab, V domains shown, not shown: a dimerising Fc or GST)
VH: EVQLLESGGGLVQPGGSLRLSCAASGFDFRSYAMMWVRQAPGKGLEWVGGINGEVGGSNTYYAPAVKGRATISRDNSKNTLYLQMNSLRAEDTAVYYCVKGAGACGICNDDIDAWGQGTLVTVSS
VL: SYELTQDPAVSVALGQTVRITCSGAGSYAGSYYYGWHQQKPGQAPVTVIYDNDKRPSNIPDRFSGSSSGNTASLTITGAQAEDEADYYCGSTNDNDDGGLFGSGTKVTVLG
notes: monomeric Fab made by GingisKHAN digestion of the IgG1
For the molecule B1, the “KD mutant/KD wild type” value stood at 0.5 fold in [1]; 2.1 fold in experiment [2]; 1.9 fold in [3]; 0.6 fold in experiment [4]; 0.5 fold in experiment [5]; 0.5 fold in [6]. The “KD mutant/KD wild type” value in experiment [7] came to 7.2 fold; in [8], 2.6 fold; in experiment [9] it was 0.5 fold.

B2: Fab fragment of antibody 15572 (Fab, V domains shown, not shown: a dimerising Fc or GST)
VH: QLQLQESGPGLVKPSETLSLTCTVSGDSISSSSYYWGWIRQPPGKGLEWIGSIFYSGNTYYNPSLKSRVTISVDTSKNQFSLKLSSVTAADTAVYYCAREDDFLTDYYGAFDIWGQGTMVTVSS
VL: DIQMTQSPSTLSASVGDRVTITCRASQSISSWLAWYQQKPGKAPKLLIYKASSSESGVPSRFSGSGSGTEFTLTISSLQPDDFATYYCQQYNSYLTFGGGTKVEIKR
notes: as for B1
As to B2, the binding result in [1], in experiment [3], in [5], in experiment [6], in [7] and in [9] was “no binding (tested: 300 nM)” in each case. The “KD mutant/KD wild type” value worked out at 0.6 fold in experiment [2], 0.5 fold in experiment [4] and 0.5 fold in experiment [8].

B3: Fab fragment of antibody 15532 (Fab, V domains shown, not shown: a dimerising Fc or GST)
VH: QVQLQQWGAGLLRPSETLSLTCAVYGESFSGYYWNWIRQPPGKGLEWIGEINHSGSTNYNPSLKSRVTISVDTSKTQFSLKLSSVTAADTAVYYCARGWDLLDWNDYWNEYWGQGTLVTVSS
VL: EIVLTQSPATLSLSPGERATLSCRASQSVSSYLAWYQQKPGQAPRLLIYDASNRATGIPARFSGSGSGTDFTLTISSLEPEDFAVYYCQQRSNWPLTFGGGTKVEIKR
notes: as for B1
In the case of B3, the “KD mutant/KD wild type” value in experiment [1] was 2.7 fold; in [2] it was 1.1 fold; in experiment [3] it was 2.6 fold; in experiment [4], 4.8 fold; in [5] it was 3.4 fold; in [6], 2.7 fold. Moreover, the “KD mutant/KD wild type” value in experiment [7] amounted to 6.3 fold; in [8], 1.4 fold; in [9] it was 3.2 fold.

B4: Fab fragment of antibody 15431 (Fab, V domains shown, not shown: a dimerising Fc or GST)
VH: QVQLQQSGPGLVKPSQTLSLTCAISGDSVSSNSAAWNWIRQSPSRGLEWLGRTYYRSKWYNDYAVSVKSRITINPDTSKNQFSLQLNSVTPEDTAVYYCARDDDWNDFDYWGQGTLVTVSS
VL: B3 VL
notes: as for B1
Turning to B4, the binding result in experiment [1], in experiment [5], in experiment [6], in [7] and in experiment [9] was “no binding (tested: 300 nM)” in each case. The “KD mutant/KD wild type” value in experiment [2] was determined as 0.6 fold; in [3], 10.6 fold; in [4], 1.1 fold; in [8], 0.5 fold.
